From article PMC4643140, “Low-Temperature-Induced Expression of Rice Ureidoglycolate Amidohydrolase is Mediated by a C-Repeat/Dehydration-Responsive Element that Specifically Interacts with Rice C-Repeat-Binding Factor 3” come the findings set out here.

For the data set, the target named is GST-OsCBF3 (Oryza sativa (rice), UniProt Q64MA1 1-238). Put plainly: EMSA; 20 fmol probe, 1 ug protein; unlabeled E2 (2 pmol) competes; 20 uL reactions, Light-Shift Chemiluminescent EMSA Kit per manufacturer; buffer, salt, pH and temperature not stated. The conditions noted are these: protein: recombinant; tags: N-terminal GST (pGEX-4T-1); label: biotin on probe; blunt.
GST-OsCBF3, sequence (Q64MA1 whole entry): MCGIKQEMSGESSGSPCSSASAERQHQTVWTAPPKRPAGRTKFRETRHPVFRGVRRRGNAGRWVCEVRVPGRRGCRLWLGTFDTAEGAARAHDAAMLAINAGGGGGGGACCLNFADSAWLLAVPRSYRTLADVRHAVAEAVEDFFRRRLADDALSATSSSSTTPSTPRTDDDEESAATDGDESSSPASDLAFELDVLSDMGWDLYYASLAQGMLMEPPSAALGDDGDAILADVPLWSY

B1: E2 (dsDNA)
DNA 1: AGCGTAGCTGCGGCGGAGAGCTCGCCGCCGACCCGCCCGGAGATTGGTTGCTTGCGCTG
DNA 2: CAGCGCAAGCAACCAATCTCCGGGCGGGTCGGCGGCGAGCTCTCCGCCGCAGCTACGCT
With B1, the binding result is recorded as “binds”.
